Our source for the Km and kcat values is paper PMC8827073, “Topological and enzymatic analysis of human Alg2 mannosyltransferase reveals its role in lipid-linked oligosaccharide biosynthetic pathway” (Communications Biology, 2022).

Substrate in this series: CC(=O)N[C@H]1[C@H](O[C@H]2[C@H](O)[C@@H](NC(C)=O)[C@@H](OP(=O)(O)OP(=O)(O)OCCC(C)CCCC(C)CCCC(C)CCCC(C)C)O[C@@H]2CO)O[C@H](CO)[C@@H](O[C@@H]2O[C@H](CO[C@H]3O[C@H](CO)[C@@H](O)[C@H](O)[C@@H]3O)[C@@H](O)[C@H](O)[C@@H]2O)[C@@H]1O
Briefly: UPLC-MS mannosyltransferase assay, nonlinear regression. In kind it is biochemical, Homo sapiens. The settings on record: 2 mM GDP-Man, 10 mM MgCl2, pH 6.0, 0.05% NP-40, 37 °C, 10 min, substrate range 8-200 μM, substrate not further purified.

B1: hAlg2 (Trx-hAlg2) (Homo sapiens) (protein)
chain: MAEEQGRERDSVPKPSVLFLHPDLGVGGAERLVLDAALALQARGCSVKIWTAHYDPGHCFAESRELPVRCAGDWLPRGLGWGGRGAAVCAYVRMVFLALYVLFLADEEFDVVVCDQVSACIPVFRLARRRKKILFYCHFPDLLLTKRDSFLKRLYRAPIDWIEEYTTGMADCILVNSQFTAAVFKETFKSLSHIDPDVLYPSLNVTSFDSVVPEKLDDLVPKGKKFLLLSINRYERKKNLTLALEALVQLRGRLTSQDWERVHLIVAGGYDERVLENVEHYQELKKMVQQSDLGQYVTFLRSFSDKQKISLLHSCTCVLYTPSNEHFGIVPLEAMYMQCPVIAVNSGGPLESIDHSVTGFLCEPDPVHFSEAIEKFIREPSLKATMGLAGRARVKEKFSPEAFTEQLYRYVTKLLV
notes: N-terminal His6-Trx tag kept (pET32), expressed in E. coli Rosetta (DE3), HisTrap purified; about 57 kDa on SDS-PAGE
In general, Km refers to the concentration of substrate that gives half-maximal velocity. For orientation: kcat means the maximal rate divided by the concentration of active sites. Regarding B1, the Km was 136.7 ± 30.4 µM and the kcat turned out to be 1.05 ± 0.13 s⁻¹.
